For experiment [1], the target named is T1, TNFα (UniProt P01375 77-233). The experiment is described as follows: SPR (Biacore), TNFα on CM5 chip, Fab injected; mean of two runs ± SD. Background: Surface plasmon resonance follows binding to a sensor surface in real time, without labels.
Method: (§1) For kinetic analysis of anti-TNFα antibodies, TNFα was coupled to an activated CM5 biosensor chip using standard NHS-EDC chemistry by injecting 200 nM TNFα at a flow rate of 2 μL/min for 10 min. […] For subsequent cycles, the chip was regenerated using pH4.0 acetate buffer. Association rates (kₒₙ) and dissociation rates (koff) were calculated using a simple one-to-one Langmuir binding model (BIAcore Evaluation Software version 3.2). The equilibrium dissociation constant (Kd) was calculated as the ratio of koff/kₒₙ.
The target in experiment [2] is T1, TNFα. The experiment is described as follows: SPR (Biacore), TNFα on CM5 chip, Fab injected.
Method: as §1
Experiment [3] deals with T1, TNFα. The experiment is described as follows: Biacore (SPR); Fab injected over immobilized TNFα.
Method: as §1
The target of experiment [4] is T2, CD25 (R&D systems cat. #223-2A/CF) (UniProt P01589 22-213, limits assumed).
T2 construct: Bought soluble protein
T2 sequence (looked up): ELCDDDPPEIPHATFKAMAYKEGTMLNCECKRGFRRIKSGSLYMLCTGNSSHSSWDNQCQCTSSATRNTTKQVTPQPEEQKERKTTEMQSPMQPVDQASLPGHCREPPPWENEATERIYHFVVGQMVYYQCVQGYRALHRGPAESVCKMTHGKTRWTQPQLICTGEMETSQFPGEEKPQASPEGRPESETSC
The experiment can be described thus: Biacore (SPR); antibody captured on Protein A, CD25 injected.
Method: (§2) Binding was measured by injection of two-fold serial dilutions of CD25 (0 nM to 50 nM; R&D systems) in buffer at 25° C. with a flow rate of 25-30 μL/min for 2 min followed by a dissociation phase of 4-5 min. Association rates (kₒₙ) and dissociation rates (koff) were calculated using a simple one-to-one Langmuir binding model (BIAcore Evaluation Software version 3.2). The equilibrium dissociation constant (Kd) was calculated as the ratio of koff/kₒₙ).

The target of experiment [5] is T2, CD25 (R&D systems cat. #223-2A/CF). The experiment can be described thus: SPR (Biacore).
Method: as §2
Experiment [6] shares this target. The experiment is described as follows: Biacore blocking assay; antibody injected over CD25 coupled to a CM5 chip, then 100 nM rh-IL2; blocked ligand IL-2.
Method: The chip was regenerated after each cycle by injection of glycine buffer @ pH 1.5 for 30 sec at 10 μL/min.
Experiment [7] has the same target. The experiment can be described thus: Biacore (SPR); antibody captured on Protein A, CD25 injected. The source holds these as a separate data set.
Method: as §2
Experiment [8] has the same target. The experiment can be described thus: SPR (Biacore), antibody captured on Protein A, CD25 injected; separate runs.
Method: as §2
Experiment [9] shares this target. The experiment is described as follows: SPR (Biacore), single variant in H1L1 background.
Method: as §2
Experiment [10] concerns the target T3, VEGF (UniProt P15692-4 27-191, limits assumed). The experiment can be described thus: Biacore (SPR); Fab injected over immobilized VEGF.
Method: (§3) For kinetic analysis of anti-VEGF antibodies, VEGF was coupled to an activated CM5 biosensor chip using standard NHS-EDC chemistry by injecting 200 nM VEGF at a flow rate of 2 μL/min for 10 min. […] Association rates (kₒₙ) and dissociation rates (koff) were calculated using a simple one-to-one Langmuir binding model (BIAcore Evaluation Software version 3.2). The equilibrium dissociation constant (Kd) was calculated as the ratio of koff/kₒₙ.
Experiment [11] deals with T3, VEGF. The experiment is described as follows: SPR (Biacore), VEGF on CM5 chip, Fab injected.
Method: as §3
In experiment [12] the target is T3, VEGF. The experiment can be described thus: Biacore (SPR); Fab injected over immobilized VEGF. This is another data set of the same source.
Method: as §3

Seven molecules from US20100004431A1 (Xencor, published 2010) can be followed below.

What is called Kd is the constant that tells how readily two partners part at equilibrium. A lower Kd goes with higher affinity. The term koff denotes the rate constant with which the complex falls apart. The low end stands for a long-lived complex, the high end for a short-lived complex. What is called kon is a measure of how fast the partners come together. Higher therefore signals faster complex formation.

Read-outs that look alike come from different tables or passages of the source.

T1 sequence (P01375 77-233 limits assumed): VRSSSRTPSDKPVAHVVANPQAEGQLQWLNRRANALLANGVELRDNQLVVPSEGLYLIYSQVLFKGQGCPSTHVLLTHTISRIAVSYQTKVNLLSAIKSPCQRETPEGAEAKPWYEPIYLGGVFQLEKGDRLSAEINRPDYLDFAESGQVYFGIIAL
T3 sequence (P15692 other isoform, or with tags, fused parts or gaps limits assumed): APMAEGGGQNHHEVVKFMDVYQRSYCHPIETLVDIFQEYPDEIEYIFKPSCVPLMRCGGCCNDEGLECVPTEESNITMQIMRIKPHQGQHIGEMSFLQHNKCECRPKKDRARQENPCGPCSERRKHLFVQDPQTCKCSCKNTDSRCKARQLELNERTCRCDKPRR

B1: Anti-TNFα H1.103L1.33 (Fab, V domains shown)
VH: EVQLVESGGGLVQPGGSLKLSCAASGFIFSNHWMNWVRQASGKGLEWVGEIRSKANNYATHYAASVKGRFTISRDDSKNTAYLQMNSLKTEDTAVYYCSRNYYGSTYDYWGQGTLVTVSS
VL: EIVLTQSPDFQSVTPKEKVTITCRASQFIGSSLHWYQQKPDQSPKLLIKYASESFSGVPSRFSGSGSGTDFTLTINSLEAEDAATYYCQQSHSWPFTFGSGTKLEIK
notes: Fab format; It has thirteen more mutations than anti-TNFα H1L1; also called anti-TNF H1.103L1.33
In experiment [1], B1 showed a Kd of 3.1 nM, a koff of 0.00092 s⁻¹ and a kon of 292000 M⁻¹ s⁻¹. The “fold difference in affinity against the chimeric antibody anti-TNFα H0L0” value in [2] was at most 3 fold. In experiment [3], the “Fold affinity change relative to H0L0” value was -1.3 fold.

B2: anti-CD25 H1.12L1.20 (antibody, V domains shown)
VH: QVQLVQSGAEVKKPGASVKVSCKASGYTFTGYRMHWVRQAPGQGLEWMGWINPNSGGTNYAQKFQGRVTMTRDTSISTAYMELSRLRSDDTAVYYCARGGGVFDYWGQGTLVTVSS
VL: EIVLTQSPATLSLSPGERATLSCRASQSVSYLHWYQQKPGQAPRLLIYTTSNRATGIPARFSGSGSGTDFTLTISSLEPEDFAVYYCHQRSTYPLTFGSGTKLEIK
notes: IgG1 format; It has twenty-two mutations against anti-CD25 H1L1; copies: 2 + 2
In [4], B2 showed a Kd of 0.17 nM, a koff of 0.00013 s⁻¹ and a kon of 750000 M⁻¹ s⁻¹. Moreover, the “fold tighter binding than anti-CD25 H0L0” value in [5] is around 1.5 fold. In addition, the “IC50 (read off the curve)” value in experiment [6] was around 40 nM.

B3: anti-CD25 H0L0 (antibody, V domains shown)
VH: QVQLQQSGAELAKPGASVKMSCKASGYTFTSYRMHWVKQRPGQGLEWIGYINPSTGYTEYNQKFKDKATLTADKSSSTAYMQLSSLTFEDSAVYYCARGGGVFDYWGQGTTLTVSS
VL: QIVLTQSPAIMSASPGEKVTITCSASSSISYMHWFQQKPGTSPKLWIYTTSNLASGVPARFSGSGSGTSYSLTISRMEAEDAATYYCHQRSTYPLTFGSGTKLELK
notes: Chimeric form of the anti-TAC antibody, in IgG1 format; also called chimeric anti-CD25 H0L0; anti-TAC H0L0
For B3, the Kd in experiment [4] was 0.26 nM; in experiment [7], 0.09 nM; in [8], 0.09 to 0.3 nM. The koff was 0.00018 s⁻¹ in experiment [4] and 0.00013 s⁻¹ in experiment [7]. In addition, the kon in experiment [4] turned out to be 670000 M⁻¹ s⁻¹; in [7], 1.6e+06 M⁻¹ s⁻¹. Further, the “IC50 (read off the curve)” value in experiment [6] is around 40 nM.

B4: anti-CD25 H1L1 single variant VH I69M (antibody, IgG1, V domains shown)
VH: QVQLVQSGAEVKKPGASVKVSCKASGYTFTSYRMHWVRQAPGQGLEWMGYINPSTGYTEYNQKFQGRVTMTADKSISTAYMELSRLRSDDTAVYYCARGGGVFDYWGQGTLVTVSS
VL: QIVLTQSPATLSLSPGERATLSCRASSSISYMHWFQQKPGQSPQLLIYTTSNLASGVPARFSGSGSGTDYTLTISSLQPEDFAVYYCHQRSTYPLTFGSGTKLEIK
notes: IgG1 format
Turning to B4, the “fold increase in affinity against anti-CD25 H1L1” value in experiment [9] amounted to 2.4 fold. In addition, in experiment [7], binding was characterised by a dissociation constant (Kd) of 0.13 nM, the koff turned out to be 0.00026 s⁻¹ and the kon stood at 2e+06 M⁻¹ s⁻¹.

B5: anti-CD25 H1.23L1.43 (antibody, IgG1, V domains shown)
VH: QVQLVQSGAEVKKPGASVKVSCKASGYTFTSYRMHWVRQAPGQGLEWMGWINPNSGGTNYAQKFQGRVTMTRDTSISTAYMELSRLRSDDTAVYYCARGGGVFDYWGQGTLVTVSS
VL: EIVLTQSPATLSLSPGERATLSCRASQSVSYLHWYQQKPGQAPRLLIYTTSNRATGIPARFSGSGSGTDYTLTISSLQPEDFAVYYCHQRSTYPLTFGSGTKLEIK
notes: IgG1 format
On to B5, for which, in experiment [4], the “Fold change in Kd vs. H0L0” value was determined as 1.6 fold, the Kd turned out to be 0.16 nM, the koff worked out at 0.00012 s⁻¹ and the kon was 730000 M⁻¹ s⁻¹. In experiment [6], the “IC50 (read off the curve)” value is around 40 nM.

B6: anti-VEGF H1.33L1.51 (Fab, V domains shown)
VH: QVQLVQSGSELKKPGASVKVSCKASGYTFTNYGMNWVRQAPGQGLEWMGWINTYTGNPTYAQGFTGRFVFSLDTSVSTAYLQISSLKAEDTAVYYCAKYPHYYGSSHWYFDVWGAGTLVTVSS
VL: DIQMTQSPSSLSASVGDRVTITCQASQDISNYLNWYQQKPGKAPKVLIYFTSSLHSGVPSRFSGSGSGTDYTLTISSLQPEDFATYYCQQYDNLPWTFGGGTKLEIK
notes: Fab format, purified by Ni-NTA chromatography
On to B6, for which, in [10], the “Fold change in Kd vs. H0L0” value was -2.5 fold, the Kd is 3.5 nM, the koff was 0.00029 s⁻¹ and the kon was determined as 83000 M⁻¹ s⁻¹. Moreover, the “fold difference in affinity against the chimeric antibody anti-VEGF H0L0” value in [11] is at most 3 fold.

B7: anti-VEGF H1.33L1.55 (Fab, V domains shown)
VH: QVQLVQSGSELKKPGASVKVSCKASGYTFTNYGMNWVRQAPGQGLEWMGWINTYTGNPTYAQGFTGRFVFSLDTSVSTAYLQISSLKAEDTAVYYCAKYPHYYGSSHWYFDVWGAGTLVTVSS
VL: DIQMTQSPSSLSASVGDRVTITCQASQDISNYLNWYQQKPGKAPKVLIYFASNLETGVPSRFSGSGSGTDYTLTISSLQPEDFATYYCQQYDNLPWTFGGGTKLEIK
notes: as for B6
For the molecule B7, in experiment [10], the “Fold change in Kd vs. H0L0” value was -2.7 fold, the Kd turned out to be 3.8 nM, the koff stood at 0.00028 s⁻¹ and the kon is 80000 M⁻¹ s⁻¹. In addition, in experiment [12], the “Fold affinity change relative to H0L0” value is -2.7 fold. Besides, the “fold difference in affinity against the chimeric antibody anti-VEGF H0L0” value in experiment [11] is at most 3 fold.
